In the supplement of paper PMC7125110:
± gives the standard error. For some assays here: Variants at the floor of the assay were thinned out.

B1: glmS ribozyme (parent)
chain: AUAAAAGCGCCAGAACUACAGAAAUGUAGUUGACGAGGAGGAGGUUUAUCGAAUUUUCGGCGGAUGCCUCCAAA

What was measured:
Conditions in all cases: with glucosamine-6-phosphate
[1] = variants of: B1; test: kcat; higher = faster cleavage; RNA array
Method in brief: (§1)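 Glucosamine-6-phosphate (40 μM to 10 mM) in HEPES/KCl/Mg(OAc)2 buffer was flowed over sequenced MiSeq chips, and tiles were imaged over ~14 h. Barcoded ribozyme variants there had been transcribed in situ by E. coli RNA polymerase and were tracked through a hybridised Cy3 probe at 37 °C. One- or two-exponential decay fits to per-tile medians, normalised to baseline and to non-cleaving reference variants, gave kobs. kcat and KM came from weighted Michaelis–Menten fits across concentrations.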

[2] = variants of: B1; test: KM; higher = weaker cofactor use; RNA array
Method in brief: as §1

[3] = variants of: B1; test: self-cleavage kobs at 640 uM GlcN6P; higher = faster cleavage; RNA array
Method in brief: as §1

[4] = variants of: B1; test: self-cleavage kobs at 2500 uM GlcN6P; higher = faster cleavage; RNA array
Method in brief: as §1

[5] = variants of: B1; test: self-cleavage kobs at 10000 uM GlcN6P; higher = faster cleavage; RNA array
Method in brief: as §1

[6] = variants of: B1; test: self-cleavage kobs at 160 uM GlcN6P; higher = faster cleavage; RNA array
Method in brief: as §1

[7] = variants of: B1; test: self-cleavage kobs at 40 uM GlcN6P; higher = faster cleavage; RNA array
Method in brief: as §1

Row | Variant | kcat [1] | KM [2] | self-cleavage kobs at 640 uM GlcN6P [3] | self-cleavage kobs at 2500 uM GlcN6P [4] | self-cleavage kobs at 10000 uM GlcN6P [5] | self-cleavage kobs at 160 uM GlcN6P [6] | self-cleavage kobs at 40 uM GlcN6P [7]
1 | U46G A52G | 0.00059 ± 3.1e-05 s⁻¹ | 6370 ± 650 µM | 5.26e-05 ± 1.6e-05 s⁻¹ | 0.000185 ± 9.1e-05 s⁻¹ | 0.00036 ± 4.6e-05 s⁻¹ | – | –
2 | U45C U65C | 0.000282 ± 2.2e-05 s⁻¹ | 6720 ± 780 µM | – | 7.8e-05 ± 1.7e-05 s⁻¹ | 0.000167 ± 4.8e-05 s⁻¹ | – | –
3 | U46C A52G | 0.000634 ± 0.00015 s⁻¹ | 5990 ± 2100 µM | 7.1e-05 ± 1.4e-05 s⁻¹ | 0.000161 ± 3.6e-05 s⁻¹ | 0.000412 ± 7e-05 s⁻¹ | – | –
4 | U45C U56A | 0.000778 ± 0.00024 s⁻¹ | – | 0.000288 ± 3.9e-05 s⁻¹ | 0.000377 ± 6.1e-05 s⁻¹ | 0.000928 ± 0.00015 s⁻¹ | 7.1e-05 ± 1.5e-05 s⁻¹ | –
5 | U45G U46A | 0.00906 ± 0.0029 s⁻¹ | 3870 ± 1700 µM | 0.000705 ± 0.00032 s⁻¹ | – | 0.00686 ± 0.0011 s⁻¹ | 0.000641 ± 0.00023 s⁻¹ | 0.000106 ± 1.7e-05 s⁻¹
6 | U46A U69G | 7.21e-05 ± 2.1e-05 s⁻¹ | – | 0.000107 ± 1.7e-05 s⁻¹ | 8.42e-05 ± 1.3e-05 s⁻¹ | 4.27e-05 ± 1.3e-05 s⁻¹ | – | –
7 | U46C U56C | 0.000648 ± 3.9e-05 s⁻¹ | 866 ± 190 µM | 0.000246 ± 7.8e-05 s⁻¹ | 0.000514 ± 0.00014 s⁻¹ | 0.000596 ± 7.5e-05 s⁻¹ | – | –
8 | U46A C61A | 1.2e-05 ± 3e-07 s⁻¹ | 1800 ± 100 µM | – | – | – | – | –
9 | U46C C70A | 0.000216 ± 5.4e-05 s⁻¹ | – | 0.000105 ± 1.7e-05 s⁻¹ | 0.000151 ± 2.5e-05 s⁻¹ | 0.000347 ± 8.7e-05 s⁻¹ | 5.11e-05 ± 2.3e-05 s⁻¹ | –
10 | U46C U69A | 0.000242 ± 4.8e-05 s⁻¹ | 686 ± 310 µM | 9.77e-05 ± 2.8e-05 s⁻¹ | 0.000199 ± 6.1e-05 s⁻¹ | 0.000243 ± 6.5e-05 s⁻¹ | 5.58e-05 ± 2.2e-05 s⁻¹ | –
11 | U45G A53C | 0.00249 ± 0.00031 s⁻¹ | 1820 ± 370 µM | 0.000627 ± 0.00012 s⁻¹ | 0.00179 ± 0.00022 s⁻¹ | 0.00197 ± 0.00021 s⁻¹ | 0.000176 ± 3.1e-05 s⁻¹ | 5.63e-05 ± 8.5e-06 s⁻¹
12 | U47A C70G | 0.000131 ± 1.7e-05 s⁻¹ | – | 0.00011 ± 1.3e-05 s⁻¹ | – | 0.000128 ± 2.5e-05 s⁻¹ | 9.75e-05 ± 2.2e-05 s⁻¹ | –
13 | U46G C67A | 0.00184 ± 0.00032 s⁻¹ | 818 ± 220 µM | 0.000783 ± 0.0001 s⁻¹ | 0.00146 ± 0.00022 s⁻¹ | 0.00173 ± 0.00021 s⁻¹ | 0.000224 ± 3.9e-05 s⁻¹ | 0.000105 ± 1.1e-05 s⁻¹
14 | U47A C71A | 0.00195 ± 0.00046 s⁻¹ | 1020 ± 320 µM | 0.00117 ± 0.00028 s⁻¹ | 0.00138 ± 0.00038 s⁻¹ | 0.00153 ± 0.00055 s⁻¹ | 0.000253 ± 6.8e-05 s⁻¹ | 6.97e-05 ± 1.4e-05 s⁻¹
15 | U45G U65C | 9.08e-05 ± 1.1e-05 s⁻¹ | 3060 ± 1100 µM | – | 4.24e-05 ± 1.4e-05 s⁻¹ | 6.91e-05 ± 1.3e-05 s⁻¹ | – | –
16 | U46C U54C | 0.00487 ± 0.00041 s⁻¹ | 1870 ± 220 µM | 0.00119 ± 0.00012 s⁻¹ | 0.0028 ± 0.00042 s⁻¹ | 0.00438 ± 0.0011 s⁻¹ | 0.000406 ± 8.6e-05 s⁻¹ | 0.000109 ± 2e-05 s⁻¹
17 | U45C C70G | 0.00245 ± 0.00063 s⁻¹ | – | 8.88e-05 ± 3.7e-05 s⁻¹ | 0.000381 ± 7.3e-05 s⁻¹ | 0.001 ± 0.00025 s⁻¹ | 3.27e-05 ± 1.6e-05 s⁻¹ | –
18 | U46G A53C | 0.00122 ± 6.4e-05 s⁻¹ | 2790 ± 250 µM | 0.000231 ± 4.3e-05 s⁻¹ | 0.000609 ± 9.9e-05 s⁻¹ | 0.000938 ± 0.00012 s⁻¹ | 5.96e-05 ± 1.8e-05 s⁻¹ | –
19 | U46A U47G | 0.00143 ± 0.00056 s⁻¹ | – | 0.000647 ± 0.00013 s⁻¹ | 0.00107 ± 0.00027 s⁻¹ | 0.00106 ± 0.00029 s⁻¹ | 9.77e-05 ± 3.5e-05 s⁻¹ | –
20 | U47A U54A | 0.0235 ± 0.0067 s⁻¹ | 1820 ± 700 µM | 0.00587 ± 0.001 s⁻¹ | 0.0118 ± 0.0025 s⁻¹ | 0.0314 ± 0.0084 s⁻¹ | 0.00186 ± 0.00037 s⁻¹ | 0.000584 ± 0.00012 s⁻¹
21 | U45G C71G | 0.000564 ± 5.3e-05 s⁻¹ | 2510 ± 370 µM | 0.000112 ± 1.2e-05 s⁻¹ | 0.000322 ± 5.2e-05 s⁻¹ | 0.000432 ± 6.3e-05 s⁻¹ | 3.29e-05 ± 1.3e-05 s⁻¹ | –
22 | U46G C68U | 0.00128 ± 0.00018 s⁻¹ | 1170 ± 300 µM | 0.000378 ± 5.2e-05 s⁻¹ | 0.00102 ± 0.00018 s⁻¹ | 0.00116 ± 0.00011 s⁻¹ | 0.000148 ± 2.3e-05 s⁻¹ | 5.92e-05 ± 9.5e-06 s⁻¹
23 | U45G C67U | 0.00709 ± 0.0025 s⁻¹ | 2100 ± 1100 µM | 0.00181 ± 0.00028 s⁻¹ | 0.00248 ± 0.00057 s⁻¹ | 0.00733 ± 0.00094 s⁻¹ | 0.000462 ± 6.3e-05 s⁻¹ | 0.000204 ± 3.5e-05 s⁻¹
24 | U45G C67G | 0.000915 ± 0.00011 s⁻¹ | 1420 ± 340 µM | 0.000303 ± 4.8e-05 s⁻¹ | 0.000477 ± 0.00011 s⁻¹ | 0.000846 ± 0.00011 s⁻¹ | 7.93e-05 ± 2.7e-05 s⁻¹ | 3.25e-05 ± 1.2e-05 s⁻¹
25 | U45G G66U | 0.0036 ± 0.00029 s⁻¹ | 4540 ± 530 µM | 0.00042 ± 7.6e-05 s⁻¹ | 0.0014 ± 0.00027 s⁻¹ | 0.00245 ± 0.00032 s⁻¹ | 0.00012 ± 2.8e-05 s⁻¹ | 3.62e-05 ± 1.2e-05 s⁻¹
26 | U46G U56C | 0.00203 ± 0.0005 s⁻¹ | 4990 ± 2300 µM | – | 0.000799 ± 0.00013 s⁻¹ | 0.00131 ± 0.00016 s⁻¹ | 4.23e-05 ± 2.1e-05 s⁻¹ | –
27 | U46G U56G | 0.00393 ± 0.00066 s⁻¹ | 1690 ± 350 µM | 0.00128 ± 0.00033 s⁻¹ | 0.00271 ± 0.00083 s⁻¹ | 0.0029 ± 0.001 s⁻¹ | 0.000353 ± 0.00012 s⁻¹ | 8.55e-05 ± 1.5e-05 s⁻¹
